Measurements from patent publication US20230293713A1, “ANTI-TM4SF1 ANTIBODY DRUG CONJUGATES AND METHODS OF USING SAME” (priority 2020, published 2023).
Like-named read-outs stand apart in the source and are kept apart here. Blank lines part the entries; values can stand above or below the molecule they belong to.

Tests used:
[1] = system: HUVEC; experiment: Cell killing assay in HUVEC (PrestoBlue viability, 5 days); type: cell-based; conditions: Homo sapiens
Protocol: To assess the effect of anti-TM4SF1 ADCs conjugated to carfilzomib, cytotoxicity of treated cell lines were assessed in cultured endothelial cell (HUVEC) and tumor cells (MiaPaca2 and SKOV3) in vitro. HUVEC was treated with free carfilzomib, CFZ-ND-ADC DAR 2.5, and CFZ-ND-ADC DAR 6.7, and maytansine-ND-ADC (DAR 2.0) and cytotoxicity was assessed (FIG. 2A). Cytotoxicity of HUVEC correlates with CFZ DAR. […] Cell killing assay. […] RPMI/10% FBS for MiaPaca2 and SKOV3). Cells are cultured for overnight at 37° C. degrees. On day 2, exemplary ADCs containing CFZ are serially diluted 5-fold in the culture media, and 100 µL of the diluted compounds is transferred to the cell plates. The final top concentration of the test exemplary ADCs in the cell plates is 333.335 nM and the lowest concentration is 0.0043 nM. […] 10 µl PrestoBlue HS cell viability reagent (ThermoFisher cat# P50201) is added to each well and incubated for 1 hour in CO2 incubator before reading the […] at 570 nm/600 nm excitation and emission through a plate reader (Varioskan™ LUX multimode microplate reader). To assess the effect of various anti-TM4SF1 ADCs conjugated to carfilzomib, cytotoxicity of treated cell lines were assessed. HUVEC was treated with free carfilzomib, and six ADCs (Table 1A) conjugated with carfilzomib (CFZ) with various linkers and/or DAR values, and cytotoxicity was assessed (Table 1B).

[2] = in vivo; cited from earlier work
[3] = molecular target: T1, Transmembrane-4 L six family member-1 (TM4SF1) (human, UniProt P30408 1-202, limits assumed); experiment: screen, method not described
T1 construct: also called human TM4SF1; hTM4SF1
T1 sequence: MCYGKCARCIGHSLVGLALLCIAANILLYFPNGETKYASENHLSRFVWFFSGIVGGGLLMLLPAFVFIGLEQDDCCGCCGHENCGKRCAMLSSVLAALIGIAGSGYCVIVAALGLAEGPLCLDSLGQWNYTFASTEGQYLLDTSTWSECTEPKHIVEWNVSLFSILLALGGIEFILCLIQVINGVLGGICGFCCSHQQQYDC

Molecule: CC(C)C[C@H](NC(=O)[C@H](CCc1ccccc1)NC(=O)CN1CCOCC1)C(=O)N[C@@H](Cc1ccccc1)C(=O)N[C@@H](CC(C)C)C(=O)[C@@]1(C)CO1 [CFZ, (S)-4-Methyl-N—((S)-1-(((S)-4-methyl-1-((R)-2-methyloxiran-2-yl)-1-oxopentan-2-yl)amino)-1-oxo-3-phenylpropan-2-yl)-2-((S)-2-(2-morpholinoacetamido)-4-phenylbutanamido)-pentanamide]
- EC50 ([1]; FIG. 2A, read-out: EC50, cytotoxicity of HUVEC): 11.9 nM
- EC50 ([1]; read-out: killing in vitro (EC50 nM) HUVEC): 11.9 nM

Molecule: COc1ccc(/C=C\c2cc(OC)c(OC)c(OC)c2)cc1OP(=O)(O)O [CA4P]
- patients who experienced heart attacks while being treated [2]: seven

B3: AGX-A05 (antibody, V domains shown)
VH: EVQVQQSGPELVKPGASVKMSCKASGYTFTSYVMHWVKQKPGQGLEWIGYINPNNDNINYNEKFKGKASLTSDKSSNTVYMELSSLTSEDSAVYYCAGYGNSGANWGQGTLVTVSA
VL: DIQMTQSPASLSASVGETVTITCRTSKNIFNFLAWYHQKQGRSPRLLVSHTKTLAAGVPSRFSGSGSGTQFSLKINSLQPEDFGIYYCQHHYGTPWTFGGGTKLEIK
notes: Monoclonal murine antibody; also called murine monoclonal antibody AGX-A05
- binding result [3]: binds

B4: AGX-A09 (antibody, V domains shown)
VH: EVQLQQSGPELVKPGASVKMSCKASGYTFSSYVMHWVKQKPGQGLEWIGYINPYSDVTNYNEKFKGKATLTSDRSSNTAYMELSSLTSEDSAVYYCARNYFDWGRGTLVTVSA
VL: DIQMTQSPASLSASVGETVTITCRASKNVYSYLAWFQQKQGKSPQLLVYNAKTLAEGVPSRFSGGGSGTQFSLKINSLQPADFGSYYCQHHYNIPFTFGSGTKLEIK
notes: Monoclonal murine antibody; also called murine monoclonal antibody AGX-A09
- binding result [3]: binds

Other lines, results leading:

- binding result [3]: binds
B1: AGX-A07 (antibody, V domains shown)
VH: QIQLVQSGPELKKPGETVKISCKASGYTFTNYGVKWVKQAPGKDLKWMGWINTYTGNPIYAADFKGRFAFSLETSASTAFLQINNLKNEDTATYFCVRFQYGDYRYFDVWGAGTTVTVSS
VL: QIILSQSPAILSASPGEKVTMTCRANSGISFINWYQQKPGSSPKPWIYGTANLASGVPARFGGSGSGTSYSLTISRVEAEDAATYYCQQWSSNPLTFGAGTKLELR
notes: also called murine monoclonal antibody AGX-A07

- binding result [3]: binds
B2: AGX-A08 (antibody, V domains shown)
VH: EVQLQQSGPELVKPGASVKLSCKASGYTVTSYVMHWVKQKPGQGLEWIGYINPYSDVTNCNEKFKGKATLTSDKTSSTAYMELSSLTSEDSAVYYCSSYGGGFAYWGQGTLVTVSA
VL: DIQMTQSPASLSASVGEPVTITCRASKNIYTYLAWYHQKQGKSPQFLVYNARTLAGGVPSRLSGSGSVTQFSLNINTLHREDLGTYFCQHHYDTPYTFGGGTNLEIK
notes: Monoclonal murine antibody; also called murine monoclonal antibody AGX-A08

- binding result [3]: binds
B5: AGX-A04 (antibody, V domains shown)
VH: EVQLQQSGPELVKPGASVKISCKTSGYTFTDYTMHWVRQSHGKSLEWIGSFNPNNGGLTNYNQKFKGKATLTVDKSSSTVYMDLRSLTSEDSAVYYCTRIRATGFDSWGQGTTLTVSS
VL: DIVMSQSPSSLAVSAGEKVTMSCKSSQSLLNSRTRKNYLAWYQQKPGQSPKLLIYWASTRESGVPDRFTGSGSGTDFTLTISNVQAEDLTVYYCKQSYNPPWTFGGGTKLEIK
notes: Monoclonal murine antibody; also called murine monoclonal antibody AGX-A04

- binding result [3]: binds
B6: AGX-A03 (antibody, V domains shown)
VH: QIQLVQSGPELKKPGETVKISCKASGYSFRDYGMNWVKQAPGRTFKWMGWINTYTGAPVYAADFKGRFAFSLDTSASAAFLQINNLKNEDTATYFCARWVSYGNNRNWFFDFWGAGTTVTVSS
VL: DVLMTQTPLSLPVRLGDQASISCRSSQTLVHSNGNTYLEWYLQKPGQSPKLLIYKVSNRLSGVPDRFSGSGSGTDFTLKISRVETEDLGVYYCFQGSHGPWTFGGGTKLEIK
notes: Monoclonal murine antibody; also called Antibody AGX-A03; murine monoclonal antibody AGX-A03
